Measurements from patent publication EP4751739A1 (Jiangsu Hengrui Pharmaceuticals Co., Ltd., dated 2025).

B1: antibody-drug conjugate-1 (ADC-1) (antibody, human IgG2, kappa, V domains shown)
VH: QVQLVESGGGVVQPGRSLRLSCAASGFSLSNYGVHWVRQAPGKGLEWLAVIWSGGSTNYAAAFVSRLTISKDNSKNTVYLQMNSLRAEDTAVYYCARNHDNPYNYAMDYWGQGTTVTVSS
VL: DIVLTQSPDSLAVSLGERATINCRADKSVSTSTYNYLHWYQQKPGQPPKLLIYLASNLASGVPDRFSGSGSGTDFTLTISSLQAEDVAVYYCQHSRDLPPTFGQGTKLEIKR
modifications: compound 9-A may also be coupled to reduced cysteines of this chain; positions not given; compound 9-A (maleimidocaproyl-GGFG linker with exatecan derivative) coupled to cysteines of the TCEP-reduced antibody; positions not given; target DAR n = 5.3, found n = 4.7-5.9 per antibody
B2: Ab-10 humanized antibody (antibody, human IgG2, kappa, V domains shown)
VH: QVQLVESGGGVVQPGRSLRLSCAASGFSLSNYGVHWVRQAPGKGLEWLAVIWSGGSTNYAAAFVSRLTISKDNSKNTVYLQMNSLRAEDTAVYYCARNHDNPYNYAMDYWGQGTTVTVSS
VL: DIVLTQSPDSLAVSLGERATINCRADKSVSTSTYNYLHWYQQKPGQPPKLLIYLASNLASGVPDRFSGSGSGTDFTLTISSLQAEDVAVYYCQHSRDLPPTFGQGTKLEIKR
notes: Humanized anti-c-Met antibody; Embodiments name human IgG2 and kappa constant regions; also called naked antibody Ab-10; Ab-10 Naked antibody

How the values were obtained:
[1] = target: T1, human c-Met on tumor cell lines (human, UniProt P08581 25-1390); test: cell-based or functional assay
T1 sequence (P08581 25-1390): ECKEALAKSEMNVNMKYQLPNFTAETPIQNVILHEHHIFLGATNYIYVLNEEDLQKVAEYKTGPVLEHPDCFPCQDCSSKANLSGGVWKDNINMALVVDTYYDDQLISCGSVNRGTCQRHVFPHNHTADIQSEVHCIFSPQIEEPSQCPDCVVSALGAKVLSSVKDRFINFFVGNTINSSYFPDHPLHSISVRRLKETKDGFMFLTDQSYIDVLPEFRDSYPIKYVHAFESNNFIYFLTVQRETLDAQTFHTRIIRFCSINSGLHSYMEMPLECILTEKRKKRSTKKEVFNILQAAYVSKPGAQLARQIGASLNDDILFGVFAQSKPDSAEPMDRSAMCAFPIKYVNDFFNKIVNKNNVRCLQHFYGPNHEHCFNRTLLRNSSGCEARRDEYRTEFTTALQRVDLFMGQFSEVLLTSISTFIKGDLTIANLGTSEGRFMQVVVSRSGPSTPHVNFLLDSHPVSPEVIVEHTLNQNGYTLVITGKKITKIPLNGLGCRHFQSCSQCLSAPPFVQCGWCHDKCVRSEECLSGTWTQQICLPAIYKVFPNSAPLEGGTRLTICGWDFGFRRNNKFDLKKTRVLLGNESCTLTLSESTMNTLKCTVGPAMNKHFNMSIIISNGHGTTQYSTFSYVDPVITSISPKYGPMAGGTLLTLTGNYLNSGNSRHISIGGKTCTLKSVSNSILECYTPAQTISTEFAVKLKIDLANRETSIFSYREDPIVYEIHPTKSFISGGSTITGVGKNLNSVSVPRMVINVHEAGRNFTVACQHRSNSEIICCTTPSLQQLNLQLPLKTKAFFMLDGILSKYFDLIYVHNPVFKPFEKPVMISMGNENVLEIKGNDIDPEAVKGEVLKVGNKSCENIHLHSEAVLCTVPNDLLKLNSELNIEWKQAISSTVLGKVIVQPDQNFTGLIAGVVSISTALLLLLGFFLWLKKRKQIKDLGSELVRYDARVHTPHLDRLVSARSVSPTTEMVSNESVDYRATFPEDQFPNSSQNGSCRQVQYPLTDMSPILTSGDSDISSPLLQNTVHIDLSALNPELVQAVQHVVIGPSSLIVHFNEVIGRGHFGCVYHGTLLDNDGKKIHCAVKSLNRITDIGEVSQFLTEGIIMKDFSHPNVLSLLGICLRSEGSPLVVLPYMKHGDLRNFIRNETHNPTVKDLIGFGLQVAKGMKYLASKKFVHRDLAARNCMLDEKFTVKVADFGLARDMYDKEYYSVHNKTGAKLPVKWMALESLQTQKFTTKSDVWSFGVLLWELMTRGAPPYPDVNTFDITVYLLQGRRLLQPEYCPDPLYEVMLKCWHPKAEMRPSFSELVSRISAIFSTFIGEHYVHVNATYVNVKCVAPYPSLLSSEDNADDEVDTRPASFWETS

[2] = target: T1, human c-Met on tumor cell lines; test: cell-based or functional assay; remark: listed apart in the source
[3] = target: T2, Cynomolgus monkey c-Met protein (cynomolgus monkey); test: SPR (Biacore 8K), ADC captured on Protein A chip, c-Met protein as analyte, 25 °C, 1:1 Langmuir fit
T2 construct: Soluble analyte in Biacore; also called cyno-c-Met

[4] = target: T2, Cynomolgus monkey c-Met protein; test: SPR (Biacore 8K), antibody captured on Protein A chip, c-Met protein as analyte, 25 °C, 1:1 Langmuir fit

Binder	IC50 for the inhibition of proliferation, EBC-1 cells (c-Met expression High), CellTiter Glo, 6 days [1] [nM]	IC50 for the inhibition of proliferation, HCT116 cells (c-Met expression Low), CellTiter Glo, 6 days [1] [nM]	IC50 for the inhibition of proliferation, Hs 746T cells (c-Met expression High), CellTiter Glo, 6 days [1] [nM]	IC50 for the inhibition of proliferation, MKN-45 cells (c-Met expression High), CellTiter Glo, 6 days [1] [nM]	IC50 for the inhibition of proliferation, NCI-H441 cells (c-Met expression Moderate), CellTiter Glo, 6 days [1] [nM]	IC50 for the inhibition of proliferation, NCI-H1299 cells (c-Met expression Low), CellTiter Glo, 6 days [1] [nM]	IC50 for the inhibition of proliferation, NCI-H1993 cells (c-Met expression High), CellTiter Glo, 6 days [1] [nM]	IC50 for the inhibition of proliferation, NCI-N87 cells (c-Met expression Low), CellTiter Glo, 6 days [1] [nM]	IC50 for the inhibition of proliferation, SW480 cells (c-Met expression Low), CellTiter Glo, 6 days [1] [nM]	Endocytosis ratio% at 0 h, EBC-1 cells, 20 nM, flow cytometry [2] [%]	Endocytosis ratio% at 0.5 h, EBC-1 cells, 20 nM, flow cytometry [2] [%]	Endocytosis ratio% at 2 h, EBC-1 cells, 20 nM, flow cytometry [2] [%]	Endocytosis ratio% at 4 h, EBC-1 cells, 20 nM, flow cytometry [2] [%]	Endocytosis ratio% at 24 h, EBC-1 cells, 20 nM, flow cytometry [2] [%]	Kd [3] [nM]	Kd [4] [nM]
B1	0.065	23.9	0.125	0.055	0.48	> 200	0.181	> 200	> 200	0	30.2	61	80.6	98.2	48.5	
B2	0.051	> 200	0.134	0.176	> 200	> 200	0.203	> 200	> 200	0	24.5	62.6	83	98.4		47.9
